# Experimental data: patent US12630600B2 (MEDIMMUNE LIMITED, priority 2022, dated 2026)
# Starred links: 1 amine or outer side, 2 acyl side, 3 side chain; linkers in the order of their positions; H or OH if unused. Non-standard residues stand in square brackets, D forms with d. Groups on a side chain read outwards from the residue. No end group written: not given here. *: point of attachment. C20 diacid = O=C(O)CCCCCCCCCCCCCCCCCCC(=O)*; C18 diacid = O=C(O)CCCCCCCCCCCCCCCCC(=O)*; γGlu = O=C(O)[C@H](CCC(=O)[*:2])N[*:1]; αMeF = C[C@](N)(Cc1ccccc1)C(=O)O; AEEA = NCCOCCOCC(=O)O; Aib = CC(C)(N)C(=O)O
# B1: Peptide 476 (peptide)
# peptide: H[Aib]QGTFTSDVSK[αMeF]LDTK([AEEA-AEEA-γGlu-C18 diacid])RAQDFVRWLLA[Aib]G-NH2
# modifications: N-terminus assumed
# SMILES: CC(C)C[C@H](NC(=O)[C@H](CC(C)C)NC(=O)[C@H](Cc1c[nH]c2ccccc12)NC(=O)[C@H](CCCNC(=N)N)NC(=O)[C@@H](NC(=O)[C@H](Cc1ccccc1)NC(=O)[C@H](CC(=O)O)NC(=O)[C@H](CCC(N)=O)NC(=O)[C@H](C)NC(=O)[C@H](CCCNC(=N)N)NC(=O)[C@H](CCCCNC(=O)COCCOCCNC(=O)COCCOCCNC(=O)CC[C@H](NC(=O)CCCCCCCCCCCCCCCCC(=O)O)C(=O)O)NC(=O)[C@@H](NC(=O)[C@H](CC(=O)O)NC(=O)[C@H](CC(C)C)NC(=O)[C@](C)(Cc1ccccc1)NC(=O)[C@H](CCCCN)NC(=O)[C@H](CO)NC(=O)[C@@H](NC(=O)[C@H](CC(=O)O)NC(=O)[C@H](CO)NC(=O)[C@@H](NC(=O)[C@H](Cc1ccccc1)NC(=O)[C@@H](NC(=O)CNC(=O)[C@H](CCC(N)=O)NC(=O)C(C)(C)NC(=O)[C@@H](N)Cc1c[nH]cn1)[C@@H](C)O)[C@@H](C)O)C(C)C)[C@@H](C)O)C(C)C)C(=O)N[C@@H](C)C(=O)NC(C)(C)C(=O)NCC(N)=O
# B2: Peptide 482 (peptide)
# peptide: H[Aib]QGTFTSDVSK[αMeF]LESK([AEEA-AEEA-γGlu-C18 diacid])RAQDFVQWLL[Aib]E-OH
# modifications: N-terminus assumed
# SMILES: CC(C)C[C@H](NC(=O)[C@H](Cc1c[nH]c2ccccc12)NC(=O)[C@H](CCC(N)=O)NC(=O)[C@@H](NC(=O)[C@H](Cc1ccccc1)NC(=O)[C@H](CC(=O)O)NC(=O)[C@H](CCC(N)=O)NC(=O)[C@H](C)NC(=O)[C@H](CCCNC(=N)N)NC(=O)[C@H](CCCCNC(=O)COCCOCCNC(=O)COCCOCCNC(=O)CC[C@H](NC(=O)CCCCCCCCCCCCCCCCC(=O)O)C(=O)O)NC(=O)[C@H](CO)NC(=O)[C@H](CCC(=O)O)NC(=O)[C@H](CC(C)C)NC(=O)[C@](C)(Cc1ccccc1)NC(=O)[C@H](CCCCN)NC(=O)[C@H](CO)NC(=O)[C@@H](NC(=O)[C@H](CC(=O)O)NC(=O)[C@H](CO)NC(=O)[C@@H](NC(=O)[C@H](Cc1ccccc1)NC(=O)[C@@H](NC(=O)CNC(=O)[C@H](CCC(N)=O)NC(=O)C(C)(C)NC(=O)[C@@H](N)Cc1c[nH]cn1)[C@@H](C)O)[C@@H](C)O)C(C)C)C(C)C)C(=O)N[C@@H](CC(C)C)C(=O)NC(C)(C)C(=O)N[C@@H](CCC(=O)O)C(=O)O
# B3: Peptide 481 (peptide)
# peptide: H[Aib]QGTFTSDVSK[αMeF]LDTK([AEEA-AEEA-γGlu-C20 diacid])RARDFVQWLLE[Aib]K-NH2
# modifications: N-terminus assumed
# SMILES: CC(C)C[C@H](NC(=O)[C@H](Cc1c[nH]c2ccccc12)NC(=O)[C@H](CCC(N)=O)NC(=O)[C@@H](NC(=O)[C@H](Cc1ccccc1)NC(=O)[C@H](CC(=O)O)NC(=O)[C@H](CCCNC(=N)N)NC(=O)[C@H](C)NC(=O)[C@H](CCCNC(=N)N)NC(=O)[C@H](CCCCNC(=O)COCCOCCNC(=O)COCCOCCNC(=O)CC[C@H](NC(=O)CCCCCCCCCCCCCCCCCCC(=O)O)C(=O)O)NC(=O)[C@@H](NC(=O)[C@H](CC(=O)O)NC(=O)[C@H](CC(C)C)NC(=O)[C@](C)(Cc1ccccc1)NC(=O)[C@H](CCCCN)NC(=O)[C@H](CO)NC(=O)[C@@H](NC(=O)[C@H](CC(=O)O)NC(=O)[C@H](CO)NC(=O)[C@@H](NC(=O)[C@H](Cc1ccccc1)NC(=O)[C@@H](NC(=O)CNC(=O)[C@H](CCC(N)=O)NC(=O)C(C)(C)NC(=O)[C@@H](N)Cc1c[nH]cn1)[C@@H](C)O)[C@@H](C)O)C(C)C)[C@@H](C)O)C(C)C)C(=O)N[C@@H](CC(C)C)C(=O)N[C@@H](CCC(=O)O)C(=O)NC(C)(C)C(=O)N[C@@H](CCCCN)C(N)=O
# B4: Peptide 483 (peptide)
# peptide: H[Aib]QGTFTSDVSK[αMeF]LDTK([AEEA-AEEA-γGlu-C18 diacid])RAQDFVQWLL[Aib]E-OH
# B5: Peptide 478 (peptide)
# peptide: H[Aib]QGTFTSDVSK[αMeF]LDTK([AEEA-AEEA-γGlu-C18 diacid])RAQDFVRWLLE[Aib]K-NH2
# modifications: N-terminus assumed
# SMILES: CC(C)C[C@H](NC(=O)[C@H](Cc1c[nH]c2ccccc12)NC(=O)[C@H](CCCNC(=N)N)NC(=O)[C@@H](NC(=O)[C@H](Cc1ccccc1)NC(=O)[C@H](CC(=O)O)NC(=O)[C@H](CCC(N)=O)NC(=O)[C@H](C)NC(=O)[C@H](CCCNC(=N)N)NC(=O)[C@H](CCCCNC(=O)COCCOCCNC(=O)COCCOCCNC(=O)CC[C@H](NC(=O)CCCCCCCCCCCCCCCCC(=O)O)C(=O)O)NC(=O)[C@@H](NC(=O)[C@H](CC(=O)O)NC(=O)[C@H](CC(C)C)NC(=O)[C@](C)(Cc1ccccc1)NC(=O)[C@H](CCCCN)NC(=O)[C@H](CO)NC(=O)[C@@H](NC(=O)[C@H](CC(=O)O)NC(=O)[C@H](CO)NC(=O)[C@@H](NC(=O)[C@H](Cc1ccccc1)NC(=O)[C@@H](NC(=O)CNC(=O)[C@H](CCC(N)=O)NC(=O)C(C)(C)NC(=O)[C@@H](N)Cc1c[nH]cn1)[C@@H](C)O)[C@@H](C)O)C(C)C)[C@@H](C)O)C(C)C)C(=O)N[C@@H](CC(C)C)C(=O)N[C@@H](CCC(=O)O)C(=O)NC(C)(C)C(=O)N[C@@H](CCCCN)C(N)=O
# B6: Peptide 479 (peptide)
# peptide: H[Aib]QGTFTSDVSK[αMeF]LDTK([AEEA-AEEA-γGlu-C20 diacid])RAQDFVRWLLE[Aib]K-NH2
# modifications: N-terminus assumed
# SMILES: CC(C)C[C@H](NC(=O)[C@H](Cc1c[nH]c2ccccc12)NC(=O)[C@H](CCCNC(=N)N)NC(=O)[C@@H](NC(=O)[C@H](Cc1ccccc1)NC(=O)[C@H](CC(=O)O)NC(=O)[C@H](CCC(N)=O)NC(=O)[C@H](C)NC(=O)[C@H](CCCNC(=N)N)NC(=O)[C@H](CCCCNC(=O)COCCOCCNC(=O)COCCOCCNC(=O)CC[C@H](NC(=O)CCCCCCCCCCCCCCCCCCC(=O)O)C(=O)O)NC(=O)[C@@H](NC(=O)[C@H](CC(=O)O)NC(=O)[C@H](CC(C)C)NC(=O)[C@](C)(Cc1ccccc1)NC(=O)[C@H](CCCCN)NC(=O)[C@H](CO)NC(=O)[C@@H](NC(=O)[C@H](CC(=O)O)NC(=O)[C@H](CO)NC(=O)[C@@H](NC(=O)[C@H](Cc1ccccc1)NC(=O)[C@@H](NC(=O)CNC(=O)[C@H](CCC(N)=O)NC(=O)C(C)(C)NC(=O)[C@@H](N)Cc1c[nH]cn1)[C@@H](C)O)[C@@H](C)O)C(C)C)[C@@H](C)O)C(C)C)C(=O)N[C@@H](CC(C)C)C(=O)N[C@@H](CCC(=O)O)C(=O)NC(C)(C)C(=O)N[C@@H](CCCCN)C(N)=O
# B7: Peptide 475 (peptide)
# peptide: H[Aib]QGTFTSDVSK[αMeF]LDTK([AEEA-AEEA-γGlu-C20 diacid])RARDFVQWLLA[Aib]G-NH2
# modifications: N-terminus assumed
# SMILES: CC(C)C[C@H](NC(=O)[C@H](CC(C)C)NC(=O)[C@H](Cc1c[nH]c2ccccc12)NC(=O)[C@H](CCC(N)=O)NC(=O)[C@@H](NC(=O)[C@H](Cc1ccccc1)NC(=O)[C@H](CC(=O)O)NC(=O)[C@H](CCCNC(=N)N)NC(=O)[C@H](C)NC(=O)[C@H](CCCNC(=N)N)NC(=O)[C@H](CCCCNC(=O)COCCOCCNC(=O)COCCOCCNC(=O)CC[C@H](NC(=O)CCCCCCCCCCCCCCCCCCC(=O)O)C(=O)O)NC(=O)[C@@H](NC(=O)[C@H](CC(=O)O)NC(=O)[C@H](CC(C)C)NC(=O)[C@](C)(Cc1ccccc1)NC(=O)[C@H](CCCCN)NC(=O)[C@H](CO)NC(=O)[C@@H](NC(=O)[C@H](CC(=O)O)NC(=O)[C@H](CO)NC(=O)[C@@H](NC(=O)[C@H](Cc1ccccc1)NC(=O)[C@@H](NC(=O)CNC(=O)[C@H](CCC(N)=O)NC(=O)C(C)(C)NC(=O)[C@@H](N)Cc1c[nH]cn1)[C@@H](C)O)[C@@H](C)O)C(C)C)[C@@H](C)O)C(C)C)C(=O)N[C@@H](C)C(=O)NC(C)(C)C(=O)NCC(N)=O
# B8: Peptide 477 (peptide)
# peptide: H[Aib]QGTFTSDVSK[αMeF]LDTK([AEEA-AEEA-γGlu-C20 diacid])RAQDFVRWLLA[Aib]G-NH2
# modifications: N-terminus assumed
# SMILES: CC(C)C[C@H](NC(=O)[C@H](CC(C)C)NC(=O)[C@H](Cc1c[nH]c2ccccc12)NC(=O)[C@H](CCCNC(=N)N)NC(=O)[C@@H](NC(=O)[C@H](Cc1ccccc1)NC(=O)[C@H](CC(=O)O)NC(=O)[C@H](CCC(N)=O)NC(=O)[C@H](C)NC(=O)[C@H](CCCNC(=N)N)NC(=O)[C@H](CCCCNC(=O)COCCOCCNC(=O)COCCOCCNC(=O)CC[C@H](NC(=O)CCCCCCCCCCCCCCCCCCC(=O)O)C(=O)O)NC(=O)[C@@H](NC(=O)[C@H](CC(=O)O)NC(=O)[C@H](CC(C)C)NC(=O)[C@](C)(Cc1ccccc1)NC(=O)[C@H](CCCCN)NC(=O)[C@H](CO)NC(=O)[C@@H](NC(=O)[C@H](CC(=O)O)NC(=O)[C@H](CO)NC(=O)[C@@H](NC(=O)[C@H](Cc1ccccc1)NC(=O)[C@@H](NC(=O)CNC(=O)[C@H](CCC(N)=O)NC(=O)C(C)(C)NC(=O)[C@@H](N)Cc1c[nH]cn1)[C@@H](C)O)[C@@H](C)O)C(C)C)[C@@H](C)O)C(C)C)C(=O)N[C@@H](C)C(=O)NC(C)(C)C(=O)NCC(N)=O
# Target: human GLP-1 receptor (human, UniProt P43220)
# Experiment: cell-based or functional assay
row,cAMP production EC50,Binder
1,0.0573 nM,B1
2,0.19 nM,B2
3,0.0522 nM,B3
4,0.178 nM,B4
5,0.00918 nM,B5
6,0.0342 nM,B6
7,0.00675 nM,B7
8,0.0541 nM,B8

# Target: human glucagon receptor (human, UniProt P47871)
# Experiment: cell-based or functional assay
row,cAMP production EC50,Binder
1,0.104 nM,B1
2,0.691 nM,B2
3,0.35 nM,B3
4,0.169 nM,B4
5,0.19 nM,B5
6,0.207 nM,B6
7,0.0615 nM,B7
8,0.117 nM,B8
